Publication PMC9482650, “Quantitative fragmentomics allow affinity mapping of interactomes” (Nature Communications, 2022)

Experiments:
Assay in all cases: holdup assay
Set-up in all cases: key: below the threshold = too weak to quantify, mostly under pKd 3.1 to 4
[1] = biological target: T1, APBA3_1, O96018
T1 sequence (O96018 389-490, limits assumed, looked up): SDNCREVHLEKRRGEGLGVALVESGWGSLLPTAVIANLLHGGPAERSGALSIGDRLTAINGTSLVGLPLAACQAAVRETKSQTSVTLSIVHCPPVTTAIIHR

[2] = biological target: T2, ARHGEF11, O15085
T2 sequence (O15085 42-136, limits assumed, looked up): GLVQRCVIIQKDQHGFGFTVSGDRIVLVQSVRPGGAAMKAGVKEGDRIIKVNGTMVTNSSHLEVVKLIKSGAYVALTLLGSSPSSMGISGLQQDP

[3] = biological target: T3, DFNB31_1, Q9P202
T3 sequence (Q9P202 135-233, limits assumed, looked up): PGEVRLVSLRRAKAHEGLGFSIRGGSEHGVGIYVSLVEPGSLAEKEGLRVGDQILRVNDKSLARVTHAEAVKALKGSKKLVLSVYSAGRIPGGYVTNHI

[4] = biological target: T4, DLG3_1, Q92796
T4 sequence (Q92796 125-227, limits assumed, looked up): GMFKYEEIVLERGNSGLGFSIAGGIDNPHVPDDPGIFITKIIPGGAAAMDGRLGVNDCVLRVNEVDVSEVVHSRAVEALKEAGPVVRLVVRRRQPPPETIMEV

[5] = biological target: DLG4_2, P78352
Sequence of DLG4_2, P78352 (P78352 155-259): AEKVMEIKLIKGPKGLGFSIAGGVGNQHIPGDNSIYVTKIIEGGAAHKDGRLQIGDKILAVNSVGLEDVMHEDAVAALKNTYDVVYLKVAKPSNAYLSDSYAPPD

[6] = biological target: FRMPD3, Q5JV73
Sequence of FRMPD3, Q5JV73 (Q5JV73 12-100): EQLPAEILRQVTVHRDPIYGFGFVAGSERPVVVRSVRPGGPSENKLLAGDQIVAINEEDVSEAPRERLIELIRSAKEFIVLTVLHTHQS

[7] = biological target: GRID2IP_2, A4D2P6
Sequence of GRID2IP_2, A4D2P6 (A4D2P6 272-370): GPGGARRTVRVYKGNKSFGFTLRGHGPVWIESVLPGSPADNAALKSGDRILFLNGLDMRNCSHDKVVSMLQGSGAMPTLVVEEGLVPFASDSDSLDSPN

[8] = biological target: T5, GRIP1_4, Q9Y3R0
T5 sequence (Q9Y3R0 467-571, limits assumed, looked up): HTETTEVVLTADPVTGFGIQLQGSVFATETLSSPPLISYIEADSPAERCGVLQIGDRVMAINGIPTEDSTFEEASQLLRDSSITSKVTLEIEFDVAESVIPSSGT

[9] = biological target: GRIP2_4, Q9C0E4
Sequence of GRIP2_4, Q9C0E4 (Q9C0E4 446-548): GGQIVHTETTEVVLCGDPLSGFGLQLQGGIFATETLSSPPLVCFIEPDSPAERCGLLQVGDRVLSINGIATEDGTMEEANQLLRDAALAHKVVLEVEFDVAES

[10] = biological target: GRIP2_6, Q9C0E4
Sequence of GRIP2_6, Q9C0E4 (Q9C0E4 648-740): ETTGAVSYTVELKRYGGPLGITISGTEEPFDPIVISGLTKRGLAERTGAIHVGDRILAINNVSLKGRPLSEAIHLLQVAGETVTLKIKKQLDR

[11] = biological target: T6, HTRA3, P83110
T6 sequence (P83110 354-453, limits assumed, looked up): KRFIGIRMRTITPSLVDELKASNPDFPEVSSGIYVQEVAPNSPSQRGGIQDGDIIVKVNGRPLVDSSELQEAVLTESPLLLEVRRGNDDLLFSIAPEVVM

[12] = biological target: IL16_1, Q14005
Sequence of IL16_1, Q14005 (Q14005 210-306): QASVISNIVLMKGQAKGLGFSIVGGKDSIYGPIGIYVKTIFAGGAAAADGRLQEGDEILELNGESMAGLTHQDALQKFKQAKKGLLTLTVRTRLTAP

[13] = biological target: IL16_4, Q14005
Sequence of IL16_4, Q14005 (Q14005 1229-1329): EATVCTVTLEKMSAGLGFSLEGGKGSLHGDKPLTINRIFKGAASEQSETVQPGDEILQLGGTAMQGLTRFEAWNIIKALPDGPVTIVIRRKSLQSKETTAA

[14] = biological target: LNX1_2, Q8TBB1
Sequence of LNX1_2, Q8TBB1 (Q8TBB1 371-470): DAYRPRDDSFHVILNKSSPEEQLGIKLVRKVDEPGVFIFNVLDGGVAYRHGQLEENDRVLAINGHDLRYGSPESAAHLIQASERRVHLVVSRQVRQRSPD

[15] = biological target: T7, LNX2_3, Q8N448
T7 sequence (Q8N448 463-564, limits assumed, looked up): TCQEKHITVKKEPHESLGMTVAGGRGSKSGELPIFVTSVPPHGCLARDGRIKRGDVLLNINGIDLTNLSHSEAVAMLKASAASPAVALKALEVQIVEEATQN

[16] = biological target: T8, LRRC7, Q96NW7
T8 sequence (Q96NW7 1440-1537, limits assumed, looked up): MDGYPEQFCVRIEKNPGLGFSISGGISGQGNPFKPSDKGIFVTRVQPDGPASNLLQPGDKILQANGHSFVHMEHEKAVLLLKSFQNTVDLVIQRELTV

[17] = biological target: MAGI1_1, Q96QZ7
Sequence of MAGI1_1, Q96QZ7 (Q96QZ7 1-106): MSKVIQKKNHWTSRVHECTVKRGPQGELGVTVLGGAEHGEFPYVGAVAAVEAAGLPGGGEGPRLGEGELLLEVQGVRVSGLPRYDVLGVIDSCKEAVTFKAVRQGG

[18] = biological target: MAGI3_2, Q5TCQ9
Sequence of MAGI3_2, Q5TCQ9 (Q5TCQ9 398-503): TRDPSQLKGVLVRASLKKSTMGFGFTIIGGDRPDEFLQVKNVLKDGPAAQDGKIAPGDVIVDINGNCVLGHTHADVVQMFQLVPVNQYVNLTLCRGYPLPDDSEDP

[19] = biological target: MAST2, Q6P0Q8
Sequence of MAST2, Q6P0Q8 (Q6P0Q8 1099-1202): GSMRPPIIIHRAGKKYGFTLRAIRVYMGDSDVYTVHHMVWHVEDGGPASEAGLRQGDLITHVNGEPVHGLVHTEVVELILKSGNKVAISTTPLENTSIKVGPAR

[20] = biological target: NHERF4_4, Q86UT5
Sequence of NHERF4_4, Q86UT5 (Q86UT5 464-550): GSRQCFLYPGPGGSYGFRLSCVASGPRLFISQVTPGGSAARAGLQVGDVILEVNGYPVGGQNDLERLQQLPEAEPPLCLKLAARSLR

[21] = biological target: PARD3_3, Q8TEW0
Sequence of PARD3_3, Q8TEW0 (Q8TEW0 582-685): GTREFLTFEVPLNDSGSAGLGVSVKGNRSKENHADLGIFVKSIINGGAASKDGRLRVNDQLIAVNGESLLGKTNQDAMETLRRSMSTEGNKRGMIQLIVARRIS

[22] = biological target: T9, PDZD2_2, O15018
T9 sequence (O15018 329-429, limits assumed, looked up): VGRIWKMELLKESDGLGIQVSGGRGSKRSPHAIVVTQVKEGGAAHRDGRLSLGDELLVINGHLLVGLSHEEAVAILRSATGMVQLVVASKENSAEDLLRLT

[23] = biological target: PTPN3, P26045
Sequence of PTPN3, P26045 (P26045 505-587): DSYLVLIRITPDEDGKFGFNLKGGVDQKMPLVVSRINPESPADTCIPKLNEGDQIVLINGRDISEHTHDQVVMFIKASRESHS

[24] = biological target: SCRIB_1, Q14160
Sequence of SCRIB_1, Q14160 (Q14160 718-814): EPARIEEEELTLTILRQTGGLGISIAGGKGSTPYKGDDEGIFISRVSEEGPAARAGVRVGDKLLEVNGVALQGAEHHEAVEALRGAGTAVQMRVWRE

[25] = biological target: SNX27, Q96L92
[26] = biological target: T10, SYNJ2BP, P57105
T10 sequence (P57105 8-110, limits assumed, looked up): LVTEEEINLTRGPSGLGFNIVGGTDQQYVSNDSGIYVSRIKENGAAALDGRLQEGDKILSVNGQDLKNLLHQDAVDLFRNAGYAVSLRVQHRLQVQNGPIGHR

[27] = biological target: TJP2_1, Q9UDY2
Sequence of TJP2_1, Q9UDY2 (Q9UDY2 24-128): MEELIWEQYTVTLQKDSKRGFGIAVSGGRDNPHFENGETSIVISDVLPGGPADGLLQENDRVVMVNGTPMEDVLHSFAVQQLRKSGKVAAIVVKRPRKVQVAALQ

[28] = plain residues with an end cap or a label only (N-terminal biotin on a linker: ahx)
[29] = plain residues with an end cap or a label only (N-terminal biotin on a linker: ttds)
[30] = plain residues with an end cap or a label only (N-terminal biotin on a linker: ado-ado)

B1: LNX1, Q8TBB1 (peptide)
chain: TIVSWPGTFL
What does the source list for B1?
pKd [1, 28]: below the threshold; pKd [2, 28]: below the threshold; pKd [3, 28]: below the threshold; pKd [4, 28]: below the threshold; pKd [5, 28]: below the threshold; pKd [6, 28]: below the threshold; pKd [7, 28]: 4.16; pKd [8, 28]: below the threshold; pKd [9, 28]: below the threshold; pKd [10, 28]: below the threshold; pKd [11, 28]: 3.62; pKd [12, 28]: below the threshold; pKd [13, 28]: below the threshold; pKd [14, 28]: below the threshold; pKd [15, 28]: below the threshold; pKd [16, 28]: below the threshold; pKd [17, 28]: below the threshold; pKd [18, 28]: below the threshold; pKd [19, 28]: 4.59; pKd [20, 28]: below the threshold; pKd [21, 28]: below the threshold; pKd [22, 28]: 4.03; pKd [23, 28]: 4.52; pKd [24, 28]: below the threshold; pKd [25, 28]: 3.79; pKd [26, 28]: 4.49; pKd [27, 28]: below the threshold

B2: TAGAP, Q8N103 (peptide)
chain: QFQYAKESYI
Which results are given for B2?
pKd [1, 29]: below the threshold; pKd [2, 29]: below the threshold; pKd [3, 29]: 4.24; pKd [4, 29]: below the threshold; pKd [5, 29]: 4.41; pKd [6, 29]: below the threshold; pKd [7, 29]: 3.72; pKd [8, 29]: below the threshold; pKd [9, 29]: below the threshold; pKd [10, 29]: below the threshold; pKd [11, 29]: 3.76; pKd [12, 29]: 4.65; pKd [13, 29]: below the threshold; pKd [14, 29]: below the threshold; pKd [15, 29]: below the threshold; pKd [16, 29]: below the threshold; pKd [17, 29]: below the threshold; pKd [18, 29]: 4.6; pKd [19, 29]: 4.69; pKd [20, 29]: below the threshold; pKd [21, 29]: 3.91; pKd [22, 29]: 5.04; pKd [23, 29]: 4.84; pKd [24, 29]: 3.72; pKd [25, 29]: 3.75; pKd [26, 29]: 4.71; pKd [27, 29]: 4.43

B3: HPV31-E6, P17386 (peptide)
chain: SRRPRTETQV
With B3 as the binder, how does the pKd [1, 29] read?
The pKd was “below the threshold”.

And the pKd [2, 29]?
The pKd was 3.58.

What about the pKd [3, 29] of the same binder?
Its pKd is 3.55.

And the pKd [4, 29]?
Its pKd is 4.44.

And the pKd [5, 29]?
Its pKd is 5.36.

What about the pKd [6, 29] of the same binder?
The pKd was “below the threshold”.

And the pKd [7, 29]?
Its pKd is “below the threshold”.

And the pKd [8, 29]?
Its pKd is “below the threshold”.

And the pKd [9, 29]?
Its pKd is “below the threshold”.

And the pKd [10, 29]?
Its pKd is “below the threshold”.

And the pKd [11, 29]?
The pKd was “below the threshold”.

And the pKd [12, 29]?
The pKd was “below the threshold”.

And the pKd [13, 29]?
Its pKd is “below the threshold”.

And the pKd [14, 29]?
Its pKd is “below the threshold”.

And the pKd [15, 29]?
The pKd was “below the threshold”.

And the pKd [16, 29]?
Its pKd is “below the threshold”.

What about the pKd [17, 29] of the same binder?
Its pKd is “below the threshold”.

What about the pKd [18, 29] of the same binder?
Its pKd is 5.87.

What about the pKd [19, 29] of the same binder?
The pKd was 5.23.

What about the pKd [20, 29] of the same binder?
Its pKd is “below the threshold”.

What about the pKd [21, 29] of the same binder?
Its pKd is “below the threshold”.

What about the pKd [22, 29] of the same binder?
Its pKd is 3.7.

What about the pKd [23, 29] of the same binder?
The pKd was 4.66.

And the pKd [24, 29]?
Its pKd is 4.6.

What about the pKd [25, 29] of the same binder?
The pKd was 4.64.

And the pKd [26, 29]?
The pKd was 5.41.

What about the pKd [27, 29] of the same binder?
Its pKd is 3.66.

B4: PRKCA, P17252 (peptide)
chain: FVHPILQSAV
Which results are given for B4?
pKd [1, 30]: below the threshold; pKd [2, 30]: 4.17; pKd [3, 30]: 4.29; pKd [4, 30]: 3.49; pKd [5, 30]: 4.53; pKd [6, 30]: below the threshold; pKd [7, 30]: 4.36; pKd [8, 30]: below the threshold; pKd [9, 30]: below the threshold; pKd [10, 30]: below the threshold; pKd [11, 30]: below the threshold; pKd [12, 30]: 4.33; pKd [13, 30]: below the threshold; pKd [14, 30]: below the threshold; pKd [15, 30]: below the threshold; pKd [16, 30]: 3.58; pKd [17, 30]: below the threshold; pKd [18, 30]: 4.32; pKd [19, 30]: 5.35; pKd [20, 30]: below the threshold; pKd [21, 30]: below the threshold; pKd [22, 30]: 5.1; pKd [23, 30]: 4.59; pKd [24, 30]: 4.57; pKd [25, 30]: 4.68; pKd [26, 30]: 5.31; pKd [27, 30]: below the threshold
